# According to PMC5087439, “One Step Assembly of Thin Films of Carbon Nanotubes on Screen Printed Interface for Electrochemical Aptasensing of Breast Cancer Biomarker”:
# B1: MUC1 aptamer (ssDNA)
# DNA: GCAGTTGATCCTTTGGATACCCTGG
# modifications: 3'-NH2
# Target: MUC1 (mucine) (UniProt P15941 24-1097)
# Assay: electrochemical impedance spectroscopy (aptamer immobilized on electrode); 2 mM [Fe(CN)6]4-/3- redox probe; 1 mM Mg2+; observed (apparent) Kd, stated as about 0.1 U/mL; Binding buffer pH 7.4: 1 mM MgCl2, 140 mM NaCl, 2.7 mM KCl, 0.1 mM Na2HPO4, 1.8 mM KH2PO4; 45 min incubation; temperature not stated
# MUC1 (mucine), sequence (P15941 24-1097): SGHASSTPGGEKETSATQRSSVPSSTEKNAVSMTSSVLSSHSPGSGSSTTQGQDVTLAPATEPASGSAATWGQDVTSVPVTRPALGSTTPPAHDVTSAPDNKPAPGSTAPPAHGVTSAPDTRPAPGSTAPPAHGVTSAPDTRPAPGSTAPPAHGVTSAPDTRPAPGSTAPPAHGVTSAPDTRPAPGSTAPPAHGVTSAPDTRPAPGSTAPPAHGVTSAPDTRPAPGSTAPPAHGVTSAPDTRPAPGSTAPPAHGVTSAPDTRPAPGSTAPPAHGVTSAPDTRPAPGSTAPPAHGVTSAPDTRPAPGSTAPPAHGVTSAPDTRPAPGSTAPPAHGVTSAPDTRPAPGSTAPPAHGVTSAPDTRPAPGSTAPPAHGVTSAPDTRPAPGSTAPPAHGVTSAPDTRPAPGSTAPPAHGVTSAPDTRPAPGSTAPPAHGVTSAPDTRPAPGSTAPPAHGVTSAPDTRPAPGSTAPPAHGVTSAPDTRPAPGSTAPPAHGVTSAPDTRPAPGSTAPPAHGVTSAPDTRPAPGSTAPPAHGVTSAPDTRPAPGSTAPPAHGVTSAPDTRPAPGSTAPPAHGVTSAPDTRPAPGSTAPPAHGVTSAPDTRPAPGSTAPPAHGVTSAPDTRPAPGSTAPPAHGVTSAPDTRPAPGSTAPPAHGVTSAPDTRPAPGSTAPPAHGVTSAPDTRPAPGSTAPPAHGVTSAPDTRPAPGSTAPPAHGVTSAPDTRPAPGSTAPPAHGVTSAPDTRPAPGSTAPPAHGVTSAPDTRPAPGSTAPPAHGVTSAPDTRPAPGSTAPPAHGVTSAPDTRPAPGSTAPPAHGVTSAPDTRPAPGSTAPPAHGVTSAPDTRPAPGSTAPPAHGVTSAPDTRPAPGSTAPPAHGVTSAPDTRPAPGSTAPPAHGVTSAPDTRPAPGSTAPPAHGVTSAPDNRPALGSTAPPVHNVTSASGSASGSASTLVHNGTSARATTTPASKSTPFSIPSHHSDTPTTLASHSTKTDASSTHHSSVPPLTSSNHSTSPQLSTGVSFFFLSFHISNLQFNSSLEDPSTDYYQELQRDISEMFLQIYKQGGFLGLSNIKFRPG
binder,measurement,value
B1,Kd,630 nM
